Test results published in PMC2481239 (Nature structural & molecular biology, 2008).

T1: Rpn1 (S. cerevisiae, UniProt P38764 1-993)
T1 sequence: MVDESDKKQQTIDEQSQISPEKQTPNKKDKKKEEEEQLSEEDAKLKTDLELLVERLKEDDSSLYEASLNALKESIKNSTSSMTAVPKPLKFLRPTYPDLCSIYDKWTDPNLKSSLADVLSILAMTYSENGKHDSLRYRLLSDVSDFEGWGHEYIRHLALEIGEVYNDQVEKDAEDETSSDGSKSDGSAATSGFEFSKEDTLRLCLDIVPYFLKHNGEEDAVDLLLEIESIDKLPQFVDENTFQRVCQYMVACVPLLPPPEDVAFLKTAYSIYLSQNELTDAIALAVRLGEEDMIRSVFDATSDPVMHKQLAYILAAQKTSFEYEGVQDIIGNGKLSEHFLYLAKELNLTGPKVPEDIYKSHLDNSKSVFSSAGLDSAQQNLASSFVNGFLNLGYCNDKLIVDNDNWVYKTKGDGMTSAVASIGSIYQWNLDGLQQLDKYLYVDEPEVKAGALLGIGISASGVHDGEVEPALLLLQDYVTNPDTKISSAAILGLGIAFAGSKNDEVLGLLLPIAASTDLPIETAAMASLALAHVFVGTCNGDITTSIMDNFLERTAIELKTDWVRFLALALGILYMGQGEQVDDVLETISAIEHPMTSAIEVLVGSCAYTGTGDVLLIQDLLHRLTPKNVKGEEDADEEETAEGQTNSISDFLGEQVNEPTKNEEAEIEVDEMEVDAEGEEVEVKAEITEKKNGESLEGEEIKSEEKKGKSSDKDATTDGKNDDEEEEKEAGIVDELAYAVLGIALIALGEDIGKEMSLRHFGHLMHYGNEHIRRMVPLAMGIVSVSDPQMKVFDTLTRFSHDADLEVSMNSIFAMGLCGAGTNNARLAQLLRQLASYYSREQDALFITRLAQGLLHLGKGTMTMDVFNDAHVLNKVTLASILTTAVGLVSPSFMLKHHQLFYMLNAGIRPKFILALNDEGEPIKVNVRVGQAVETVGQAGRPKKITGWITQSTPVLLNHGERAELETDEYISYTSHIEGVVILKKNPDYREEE


Tests used:
[1] = molecular target: T1, Rpn1; test: cross-linking
[2] = molecular target: Rpn1-Rpn2 unit (S. cerevisiae, UniProt P38764 1-993; P32565 1-945); test: atomic force microscopy
[3] = molecular target: T1, Rpn1; test: atomic force microscopy

Binder | binding result [1] | stoichiometry N [2] | stoichiometry N [3]
Rpn2 (natural protein) MSLTTAAPLLALLRENQDSVKTYALESINNVVDQLWSEISNELPDIEALYDDDTFSDREMAALIASKVYYNLGEYESAVKYALAAKDRFDIDEKSQFVETIVSKSIEMYVQEASKQYTKDEQFYTKDIIDPKLTSIFERMIEKCLKASELKLALGIALEGYRLDIIESALKSKLDQDSTSENVKIINYLLTLAITTVTNSKFRSSILRKSFDFLMNMPNCDYLTLNKVVVNLNDAGLALQLFKKLKEENDEGLSAQIAFDLVSSASQQLLEILVTELTAQGYDPALLNILSGLPTCDYYNTFLLNNKNIDIGLLNKSKSSLDGKFSLFHTAVSVANGFMHAGTTDNSFIKANLPWLGKAQNWAKFTATASLGVIHKGNLLEGKKVMAPYLPGSRASSRFIKGGSLYGLGLIYAGFGRDTTDYLKNIIVENSGTSGDEDVDVLLHGASLGIGLAAMGSANIEVYEALKEVLYNDSATSGEAAALGMGLCMLGTGKPEAIHDMFTYSQETQHGNITRGLAVGLALINYGRQELADDLITKMLASDESLLRYGGAFTIALAYAGTGNNSAVKRLLHVAVSDSNDDVRRAAVIALGFVLLRDYTTVPRIVQLLSKSHNAHVRCGTAFALGIACAGKGLQSAIDVLDPLTKDPVDFVRQAAMIALSMILIQQTEKLNPQVADINKNFLSVITNKHQEGLAKFGACVAQGIMNAGGRNVTIQLENADTGTLDTKSVVGLVMFSQFWYWFPLAHFLSLSFTPTTVIGIRGSDQAIPKFQMNCYAKEDAFSYPRMYEEASGKEVEKVATAVLSTTARAKARAKKTKKEKGPNEEEKKKEHEEKEKERETNKKGIKETKENDEEFYKNKYSSKPYKVDNMTRILPQQSRYISFIKDDRFVPVRKFKGNNGVVVLRDREPKEPVALIETVRQMKDVNAPLPTPFKVDDNVDFPSA | binds | – | –
Rad23 (natural protein) MVSLTFKNFKKEKVPLDLEPSNTILETKTKLAQSISCEESQIKLIYSGKVLQDSKTVSECGLKDGDQVVFMVSQKKSTKTKVTEPPIAPESATTPGRENSTEASPSTDASAAPAATAPEGSQPQEEQTATTERTESASTPGFVVGTERNETIERIMEMGYQREEVERALRAAFNNPDRAVEYLLMGIPENLRQPEPQQQTAAAAEQPSTAATTAEQPAEDDLFAQAAQGGNASSGALGTTGGATDAAQGGPPGSIGLTVEDLLSLRQVVSGNPEALAPLLENISARYPQLREHIMANPEVFVSMLLEAVGDNMQDVMEGADDMVEGEDIEVTGEAAAAGLGQGEGEGSFQVDYTPEDDQAISRLCELGFERDLVIQVYFACDKNEEAAANILFSDHAD | – | 1 | 1
